Test results published in PMC5796856 (Molecular microbiology, 2018).

Assays:
FtsA [1] = target: FtsA (Escherichia coli, UniProt P0ABH0, K86A); assay: mant fluorescence titration; assay type: binding
FtsA [2] = target: T1, FtsA (Escherichia coli, UniProt P0ABH0); assay: mant fluorescence titration; assay type: binding
T1 sequence (P0ABH0 1-420): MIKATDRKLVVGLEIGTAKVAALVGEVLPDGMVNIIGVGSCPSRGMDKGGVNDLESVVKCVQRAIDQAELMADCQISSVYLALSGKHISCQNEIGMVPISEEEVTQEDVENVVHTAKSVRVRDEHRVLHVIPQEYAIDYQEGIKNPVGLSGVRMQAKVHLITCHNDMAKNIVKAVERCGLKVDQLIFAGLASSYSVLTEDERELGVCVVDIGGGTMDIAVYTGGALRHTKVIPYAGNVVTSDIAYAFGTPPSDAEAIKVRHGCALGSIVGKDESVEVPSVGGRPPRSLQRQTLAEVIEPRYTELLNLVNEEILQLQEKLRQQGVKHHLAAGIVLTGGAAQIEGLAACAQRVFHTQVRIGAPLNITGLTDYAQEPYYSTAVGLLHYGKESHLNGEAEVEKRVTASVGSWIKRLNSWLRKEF

FtsA (E. coli) = FtsA (E. coli) (UniProt P0ABH0); assay: co-sedimentation
FtsA [3] = target: T2, FtsA (E. coli, UniProt P0ABH0 1-420); assay: confocal fluorescence microscopy of recruitment to vesicles in vitro
T2 sequence (looked up): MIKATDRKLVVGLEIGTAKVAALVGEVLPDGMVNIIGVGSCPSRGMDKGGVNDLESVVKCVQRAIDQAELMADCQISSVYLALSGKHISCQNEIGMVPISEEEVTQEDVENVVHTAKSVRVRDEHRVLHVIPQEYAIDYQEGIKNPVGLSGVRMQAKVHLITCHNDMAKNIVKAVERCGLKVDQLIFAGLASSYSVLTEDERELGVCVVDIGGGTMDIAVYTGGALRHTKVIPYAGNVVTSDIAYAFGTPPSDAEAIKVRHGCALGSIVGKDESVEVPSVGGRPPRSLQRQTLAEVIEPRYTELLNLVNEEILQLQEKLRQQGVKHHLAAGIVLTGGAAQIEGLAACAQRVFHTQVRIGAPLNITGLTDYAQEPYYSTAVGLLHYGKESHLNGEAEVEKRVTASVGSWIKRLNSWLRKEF

[4] = target: the molecule itself; assay: sedimentation of polymers by ultracentrifugation
SEC = target: the molecule itself; assay: SEC

Sequence of FtsA (Escherichia coli, UniProt P0ABH0, K86A) (P0ABH0 whole entry K86A): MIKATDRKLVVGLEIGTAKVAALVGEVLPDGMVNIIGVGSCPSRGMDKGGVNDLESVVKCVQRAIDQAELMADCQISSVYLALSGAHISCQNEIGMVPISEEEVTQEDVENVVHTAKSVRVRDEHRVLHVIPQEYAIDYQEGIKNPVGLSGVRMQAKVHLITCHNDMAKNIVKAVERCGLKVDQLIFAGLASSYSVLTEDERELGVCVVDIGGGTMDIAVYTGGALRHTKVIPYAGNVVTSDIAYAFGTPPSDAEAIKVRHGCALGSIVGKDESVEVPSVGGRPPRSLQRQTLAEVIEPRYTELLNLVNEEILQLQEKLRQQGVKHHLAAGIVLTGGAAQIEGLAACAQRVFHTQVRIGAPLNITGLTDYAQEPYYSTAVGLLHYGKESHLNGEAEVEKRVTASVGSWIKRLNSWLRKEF

CNc1ccccc1C(=O)O[C@H]1[C@@H](O)[C@H](n2cnc3c(N)ncnc32)O[C@@H]1CO[P@@](=O)(O)O[P@](=O)(O)OP(=O)(O)O [mant-ATP]
Kd (FtsA [1]): 27.9 ± 0.5 µM | Kd (FtsA [2]): 26.2 ± 3 µM

FtsZ(R379E) (from UniProt P0A9A6 1-383) (natural protein)
percent of FtsZ in the pellet (FtsA (E. coli)): 35.6%

B1: FL-FtsZ (natural protein, E. coli, UniProt P0A9A6 1-383, looked up)
chain: MFEPMELTNDAVIKVIGVGGGGGNAVEHMVRERIEGVEFFAVNTDAQALRKTAVGQTIQIGSGITKGLGAGANPEVGRNAADEDRDALRAALEGADMVFIAAGMGGGTGTGAAPVVAEVAKDLGILTVAVVTKPFNFEGKKRMAFAEQGITELSKHVDSLITIPNDKLLKVLGRGISLLDAFGAANDVLKGAVQGIAELITRPGLMNVDFADVRTVMSEMGYAMMGSGVASGEDRAEEAAEMAISSPLLEDIDLSGARGVLVNITAGFDLRLDEFETVGNTIRAFASDNATVVIGTSLDPDMNDELRVTVVATGIGMDKRPEITLVTNKQVQQPVMDRYQQHGMAPLTQEQKPVAKVVNDNAPQTAKEPDYLDIPAFLRKQAD
modifications: Alexa Fluor 488 label
binding result (FtsA [3]): binds

B2: FtsZ (natural protein, E. coli, UniProt P0A9A6 1-383, looked up)
chain: MFEPMELTNDAVIKVIGVGGGGGNAVEHMVRERIEGVEFFAVNTDAQALRKTAVGQTIQIGSGITKGLGAGANPEVGRNAADEDRDALRAALEGADMVFIAAGMGGGTGTGAAPVVAEVAKDLGILTVAVVTKPFNFEGKKRMAFAEQGITELSKHVDSLITIPNDKLLKVLGRGISLLDAFGAANDVLKGAVQGIAELITRPGLMNVDFADVRTVMSEMGYAMMGSGVASGEDRAEEAAEMAISSPLLEDIDLSGARGVLVNITAGFDLRLDEFETVGNTIRAFASDNATVVIGTSLDPDMNDELRVTVVATGIGMDKRPEITLVTNKQVQQPVMDRYQQHGMAPLTQEQKPVAKVVNDNAPQTAKEPDYLDIPAFLRKQAD
binding result [4]: binds

B3: FtsZ(R379E) (natural protein, E. coli, UniProt P0A9A6 1-383, looked up)
chain: MFEPMELTNDAVIKVIGVGGGGGNAVEHMVRERIEGVEFFAVNTDAQALRKTAVGQTIQIGSGITKGLGAGANPEVGRNAADEDRDALRAALEGADMVFIAAGMGGGTGTGAAPVVAEVAKDLGILTVAVVTKPFNFEGKKRMAFAEQGITELSKHVDSLITIPNDKLLKVLGRGISLLDAFGAANDVLKGAVQGIAELITRPGLMNVDFADVRTVMSEMGYAMMGSGVASGEDRAEEAAEMAISSPLLEDIDLSGARGVLVNITAGFDLRLDEFETVGNTIRAFASDNATVVIGTSLDPDMNDELRVTVVATGIGMDKRPEITLVTNKQVQQPVMDRYQQHGMAPLTQEQKPVAKVVNDNAPQTAKEPDYLDIPAFLEKQAD
binding result [4]: binds

B4: FtsA(ΔMTS) (domain or fragment, E. coli, UniProt P0ABH0 1-404, looked up)
chain: MIKATDRKLVVGLEIGTAKVAALVGEVLPDGMVNIIGVGSCPSRGMDKGGVNDLESVVKCVQRAIDQAELMADCQISSVYLALSGKHISCQNEIGMVPISEEEVTQEDVENVVHTAKSVRVRDEHRVLHVIPQEYAIDYQEGIKNPVGLSGVRMQAKVHLITCHNDMAKNIVKAVERCGLKVDQLIFAGLASSYSVLTEDERELGVCVVDIGGGTMDIAVYTGGALRHTKVIPYAGNVVTSDIAYAFGTPPSDAEAIKVRHGCALGSIVGKDESVEVPSVGGRPPRSLQRQTLAEVIEPRYTELLNLVNEEILQLQEKLRQQGVKHHLAAGIVLTGGAAQIEGLAACAQRVFHTQVRIGAPLNITGLTDYAQEPYYSTAVGLLHYGKESHLNGEAEVEKRVTAS
stoichiometry N (SEC): 2
